Test results: patent US20170320966A1 (INDUSTRIAL TECHNOLOGY RESEARCH INSTITUTE, published 2017)
Numbering of substitutions follows the chain as printed. Values belong to the binder of their own block, whether it stands above or below them.

What was measured:
[1] = biological target: T1, human CD34 protein (Fc tag) (human, UniProt P28906 32-290); test: SPR (Biacore X), CD34-Fc immobilized on chip, antibody injected, bivalent fit
T1 construct: Bought reagent (Sino Biological); also called recombinant human CD34 protein; immobilized human CD34 protein; not shown: Fc tag
T1 sequence (looked up): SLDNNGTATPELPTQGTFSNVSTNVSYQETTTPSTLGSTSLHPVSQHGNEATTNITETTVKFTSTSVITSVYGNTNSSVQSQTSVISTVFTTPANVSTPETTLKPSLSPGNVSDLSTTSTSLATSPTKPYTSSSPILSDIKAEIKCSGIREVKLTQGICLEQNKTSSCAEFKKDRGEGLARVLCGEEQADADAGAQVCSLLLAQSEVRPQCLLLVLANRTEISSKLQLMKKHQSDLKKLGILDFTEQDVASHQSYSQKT
Experimental: (§1) FIGS. 8A and 8B show the surface plasma resonance (SPR) analysis of interaction between human CD34 protein and chimeric QBEND/10 (A) or humanized QBEND/10 (B). Each antibody was injected and flowed over a surface chip with immobilized human CD34 protein at a flow rate of 30 μl/min. The resulting SPR sensorgrams were analyzed to determine the association/dissociation rate constants using the analysis program (BIAevaluation 3.2) provided by the manufacturer.
(§2) The binding kinetics of QBEND/10 antibodies to the human CD34 protein (Fc tag) (Sino Biological Incorporation, Beijing, China) were measured by performing the Biacore system (Biacore X, GE Healthcare, South Logan, Utah, USA) in the electrophoresis running buffer HBS-EP (10 mM HEPES, pH 7.4; 150 mM NaCl; 3 mM EDTA; 0.005% surfactant P20). In Brief, human CD34 protein was immobilized onto a CMS sensor chip via amine coupling to a level of 1200 response units (RU), and purified antibodies with different concentrations were injected at a flow rate of 30 μl/min. The surface was regenerated by injection of 15 μl of 10 mM glycine-HCl, pH 2.5. Then, the sensorgrams obtained at each concentration were evaluated by the program BIA Evaluation 3.2 (GE Healthcare, South Logan, Utah, USA). The binding data were fitted with a 2:1 (bivalent) binding model to calculate the affinity constant KD, which was defined as the ratio of dissociation rate (koff)/association rate (kₒₙ).

[2] = biological target: T1, human CD34 protein (Fc tag); test: SPR (Biacore X), CD34-Fc immobilized on chip
Experimental: as §1
as §2, with “The binding data were fitted with a 2:1 (bivalent) binding model to calculate the affinity constant KD, which was defined as the ratio of dissociation rate (koff)/association rate (kₒₙ).” left out

Kd [1]: 14.7 nM | koff [1]: 0.000262 s⁻¹ | kon [1]: 17800 M⁻¹ s⁻¹
B1: chimeric QBEND/10 (antibody, V domains shown)
VH: QVQLEQSGPELVKPGASVKMSCKASGYTFTSYVIHWVKQKPGQGLEWLGYTNPYNDVTKYNEKFKFKATLTSDKQSTTAYMEFSSLTSEDSAVYYCARYGGLWLYAMDYWGQGTSVTVSS
VL: QLVLTQSSSASFSLGASAKLTCTLSSQHRTFTIEWYQQQPLKPPKYVMELRKDGSHSTGDGIPDRFSGSSSGADRYLSISNIQPEDEAIYICGVGNTIKEQFVYVFGGGTKVTVL
notes: Expressed in NS0 cells; also called chimeric QBEND/10 antibody; parental antibody

Kd [1]: 7.34 nM | koff [1]: 0.000268 s⁻¹ | kon [1]: 36600 M⁻¹ s⁻¹ | fold increase of kon against chimeric QBEND/10 [2]: 2 fold
B2: humanized QBEND/10 (antibody, V domains shown)
VH: B1 VH with E5V, P9A, K74T, Q75S
VL: B1 VL with S8P, L41E, T58K, N81S, G108T
notes: Expressed in NS0 cells; also called resurfaced QBEND/10; humanized QBEND/10 antibody
